Data published in publication PMC10261145, “Ceramide sensing by human SPT-ORMDL complex for establishing sphingolipid homeostasis” (Nature Communications, 2023).

Experiments:
[1] = substrate: N[C@@H](CO)C(=O)O; assay: purified protein; details: 100 μM palmitoyl-CoA, 25 μM PLP, pH 7.5, 37 °C
[2] = substrate: CCCCCCCCCCCCCCCC(=O)SCCNC(=O)CCNC(=O)[C@H](O)C(C)(C)COP(=O)(O)OP(=O)(O)OC[C@H]1O[C@@H](n2cnc3c(N)ncnc32)[C@H](O)[C@@H]1OP(=O)(O)O; assay: DTNB CoA-release assay; allosteric sigmoidal fit; type: biochemical, Homo sapiens; details: 10 mM L-serine, 25 μM PLP, pH 7.5, 37 °C
Description: DTNB CoA-release assay; allosteric sigmoidal fit on SPT-ORMDL3 complex | increased Khalf for palmitoyl-CoA in the ORMDL3-containing complex (Fig. 1e)

[3] = substrate: CCCCCCCCCCCCCCCC(=O)SCCNC(=O)CCNC(=O)[C@H](O)C(C)(C)COP(=O)(O)OP(=O)(O)OC[C@H]1O[C@@H](n2cnc3c(N)ncnc32)[C@H](O)[C@@H]1OP(=O)(O)O; assay: DTNB CoA-release assay; allosteric sigmoidal fit; type: biochemical, Homo sapiens; details: 10 mM L-serine, 25 μM PLP, pH 7.5, 37 °C; remark: listed apart in the source
Description: DTNB CoA-release assay; allosteric sigmoidal fit on SPT-ORMDL3 complex | Khalf value of this variant toward palmitoyl-CoA was nearly two times as high

[4] = substrate: CCCCCCCCCCCCCCCC(=O)SCCNC(=O)CCNC(=O)[C@H](O)C(C)(C)COP(=O)(O)OP(=O)(O)OC[C@H]1O[C@@H](n2cnc3c(N)ncnc32)[C@H](O)[C@@H]1OP(=O)(O)O; assay: DTNB CoA-release assay; allosteric sigmoidal fit; type: biochemical, Homo sapiens; details: 10 mM L-serine, 25 μM PLP, pH 7.5, 37 °C; remark: listed apart in the source
[5] = substrate: CCCCCCCCCCCCCCCC(=O)SCCNC(=O)CCNC(=O)[C@H](O)C(C)(C)COP(=O)(O)OP(=O)(O)OC[C@H]1O[C@@H](n2cnc3c(N)ncnc32)[C@H](O)[C@@H]1OP(=O)(O)O; assay: DTNB CoA-release assay; allosteric sigmoidal fit; type: biochemical, Homo sapiens; details: 10 mM L-serine, 25 μM PLP, pH 7.5, 37 °C; remark: listed apart in the source
Description: DTNB CoA-release assay; allosteric sigmoidal fit on SPT complex | SPT activity versus palmitoyl-CoA concentration for SPT and SPT-ORMDL3 complex

B1: SPT-ORMDL3 complex (Homo sapiens) (protein)
chain 1: MNVGTAHSEVNPNTRVMNSRGIWLSYVLAIGLLHIVLLSIPFVSVPVVWTLTNLIHNMGMYIFLHTVKGTPFETPDQGKARLLTHWEQMDYGVQFTASRKFLTITPIVLYFLTSFYTKYDQIHFVLNTVSLMSVLIPKLPQLHGVRIFGINKY
chain 2: MRPEPGGCCCRRTVRANGCVANGEVRNGYVRSSAAAAAAAAAGQIHHVTQNGGLYKRPFNEAFEETPMLVAVLTYVGYGVLTLFGYLRDFLRYWRIEKCHHATEREEQKDFVSLYQDFENFYTRNLYMRIRDNWNRPICSVPGARVDIMERQSHDYNWSFKYTGNIIKGVINMGSYNYLGFARNTGSCQEAAAKVLEEYGAGVCSTRQEIGNLDKHEELEELVARFLGVEAAMAYGMGFATNSMNIPALVGKGCLILSDELNHASLVLGARLSGATIRIFKHNNMQSLEKLLKDAIVYGQPRTRRPWKKILILVEGIYSMEGSIVRLPEVIALKKKYKAYLYLDEAHSIGALGPTGRGVVEYFGLDPEDVDVMMGTFTKSFGASGGYIGGKKELIDYLRTHSHSAVYATSLSPPVVEQIITSMKCIMGQDGTSLGKECVQQLAENTRYFRRRLKEMGFIIYGNEDSPVVPLMLYMPAKIGAFGREMLKRNIGVVVVGFPATPIIESRARFCLSAAHTKEILDTALKEIDEVGDLLQLKYSRHRLVPLLDRPFDETTYEETED
chain 3: MATATEQWVLVEMVQALYEAPAYHLILEGILILWIIRLLFSKTYKLQERSDLTVKEKEELIEEWQPEPLVPPVPKDHPALNYNIVSGPPSHKTVVNGKECINFASFNFLGLLDNPRVKAAALASLKKYGVGTCGPRGFYGTFDVHLDLEDRLAKFMKTEEAIIYSYGFATIASAIPAYSKRGDIVFVDRAACFAIQKGLQASRSDIKLFKHNDMADLERLLKEQEIEDQKNPRKARVTRRFIVVEGLYMNTGTICPLPELVKLKYKYKARIFLEESLSFGVLGEHGRGVTEHYGINIDDIDLISANMENALASIGGFCCGRSFVIDHQRLSGQGYCFSASLPPLLAAAAIEALNIMEENPGIFAVLKEKCGQIHKALQGISGLKVVGESLSPAFHLQLEESTGSREQDVRLLQEIVDQCMNRSIALTQARYLEKEEKCLPPPSIRVVVTVEQTEEELERAASTIKEVAQAVLL
notes: full-length subunits (ORMDL3-FL) co-expressed in HEK293F; N-terminal Flag tag on a subunit; purified in GDN; dimer of heterotetrameric protomers; with Serine palmitoyltransferase small subunit A
Question: What does the source list for B1?
Answer: Km [1]: 1140 ± 70 µM; K0.5 [2]: 26.85 ± 2.18 µM

B2: SPT-ORMDL3 complex (Homo sapiens; Q8N138:N13A) (protein)
chain 1: MNVGTAHSEVNPATRVMNSRGIWLSYVLAIGLLHIVLLSIPFVSVPVVWTLTNLIHNMGMYIFLHTVKGTPFETPDQGKARLLTHWEQMDYGVQFTASRKFLTITPIVLYFLTSFYTKYDQIHFVLNTVSLMSVLIPKLPQLHGVRIFGINKY
chain 2: MRPEPGGCCCRRTVRANGCVANGEVRNGYVRSSAAAAAAAAAGQIHHVTQNGGLYKRPFNEAFEETPMLVAVLTYVGYGVLTLFGYLRDFLRYWRIEKCHHATEREEQKDFVSLYQDFENFYTRNLYMRIRDNWNRPICSVPGARVDIMERQSHDYNWSFKYTGNIIKGVINMGSYNYLGFARNTGSCQEAAAKVLEEYGAGVCSTRQEIGNLDKHEELEELVARFLGVEAAMAYGMGFATNSMNIPALVGKGCLILSDELNHASLVLGARLSGATIRIFKHNNMQSLEKLLKDAIVYGQPRTRRPWKKILILVEGIYSMEGSIVRLPEVIALKKKYKAYLYLDEAHSIGALGPTGRGVVEYFGLDPEDVDVMMGTFTKSFGASGGYIGGKKELIDYLRTHSHSAVYATSLSPPVVEQIITSMKCIMGQDGTSLGKECVQQLAENTRYFRRRLKEMGFIIYGNEDSPVVPLMLYMPAKIGAFGREMLKRNIGVVVVGFPATPIIESRARFCLSAAHTKEILDTALKEIDEVGDLLQLKYSRHRLVPLLDRPFDETTYEETED
chain 3: MATATEQWVLVEMVQALYEAPAYHLILEGILILWIIRLLFSKTYKLQERSDLTVKEKEELIEEWQPEPLVPPVPKDHPALNYNIVSGPPSHKTVVNGKECINFASFNFLGLLDNPRVKAAALASLKKYGVGTCGPRGFYGTFDVHLDLEDRLAKFMKTEEAIIYSYGFATIASAIPAYSKRGDIVFVDRAACFAIQKGLQASRSDIKLFKHNDMADLERLLKEQEIEDQKNPRKARVTRRFIVVEGLYMNTGTICPLPELVKLKYKYKARIFLEESLSFGVLGEHGRGVTEHYGINIDDIDLISANMENALASIGGFCCGRSFVIDHQRLSGQGYCFSASLPPLLAAAAIEALNIMEENPGIFAVLKEKCGQIHKALQGISGLKVVGESLSPAFHLQLEESTGSREQDVRLLQEIVDQCMNRSIALTQARYLEKEEKCLPPPSIRVVVTVEQTEEELERAASTIKEVAQAVLL
notes: as for B1
Question: B2 was tested. Which K0.5 [3] did it give?
Answer: Its K0.5 is 8.05 ± 1.20 µM.

B3: SPT-ORMDL3 (ORMDL3-ΔN17) (Homo sapiens) (protein)
chain 1: MATATEQWVLVEMVQALYEAPAYHLILEGILILWIIRLLFSKTYKLQERSDLTVKEKEELIEEWQPEPLVPPVPKDHPALNYNIVSGPPSHKTVVNGKECINFASFNFLGLLDNPRVKAAALASLKKYGVGTCGPRGFYGTFDVHLDLEDRLAKFMKTEEAIIYSYGFATIASAIPAYSKRGDIVFVDRAACFAIQKGLQASRSDIKLFKHNDMADLERLLKEQEIEDQKNPRKARVTRRFIVVEGLYMNTGTICPLPELVKLKYKYKARIFLEESLSFGVLGEHGRGVTEHYGINIDDIDLISANMENALASIGGFCCGRSFVIDHQRLSGQGYCFSASLPPLLAAAAIEALNIMEENPGIFAVLKEKCGQIHKALQGISGLKVVGESLSPAFHLQLEESTGSREQDVRLLQEIVDQCMNRSIALTQARYLEKEEKCLPPPSIRVVVTVEQTEEELERAASTIKEVAQAVLL
chain 2: MRPEPGGCCCRRTVRANGCVANGEVRNGYVRSSAAAAAAAAAGQIHHVTQNGGLYKRPFNEAFEETPMLVAVLTYVGYGVLTLFGYLRDFLRYWRIEKCHHATEREEQKDFVSLYQDFENFYTRNLYMRIRDNWNRPICSVPGARVDIMERQSHDYNWSFKYTGNIIKGVINMGSYNYLGFARNTGSCQEAAAKVLEEYGAGVCSTRQEIGNLDKHEELEELVARFLGVEAAMAYGMGFATNSMNIPALVGKGCLILSDELNHASLVLGARLSGATIRIFKHNNMQSLEKLLKDAIVYGQPRTRRPWKKILILVEGIYSMEGSIVRLPEVIALKKKYKAYLYLDEAHSIGALGPTGRGVVEYFGLDPEDVDVMMGTFTKSFGASGGYIGGKKELIDYLRTHSHSAVYATSLSPPVVEQIITSMKCIMGQDGTSLGKECVQQLAENTRYFRRRLKEMGFIIYGNEDSPVVPLMLYMPAKIGAFGREMLKRNIGVVVVGFPATPIIESRARFCLSAAHTKEILDTALKEIDEVGDLLQLKYSRHRLVPLLDRPFDETTYEETED
notes: ORMDL3 lacking the N-terminal 16 residues (deletion 2-17, by analogy with the printed ΔN8 = 2-8); HEK293F; purified in GDN; with Serine palmitoyltransferase small subunit A; ORM1-like protein 3
Question: B3 was tested. Which K0.5 [4] did it give?
Answer: Its K0.5 is 2.51 ± 0.33 µM.

B4: SPT complex (Homo sapiens) (protein)
chain 1: MATATEQWVLVEMVQALYEAPAYHLILEGILILWIIRLLFSKTYKLQERSDLTVKEKEELIEEWQPEPLVPPVPKDHPALNYNIVSGPPSHKTVVNGKECINFASFNFLGLLDNPRVKAAALASLKKYGVGTCGPRGFYGTFDVHLDLEDRLAKFMKTEEAIIYSYGFATIASAIPAYSKRGDIVFVDRAACFAIQKGLQASRSDIKLFKHNDMADLERLLKEQEIEDQKNPRKARVTRRFIVVEGLYMNTGTICPLPELVKLKYKYKARIFLEESLSFGVLGEHGRGVTEHYGINIDDIDLISANMENALASIGGFCCGRSFVIDHQRLSGQGYCFSASLPPLLAAAAIEALNIMEENPGIFAVLKEKCGQIHKALQGISGLKVVGESLSPAFHLQLEESTGSREQDVRLLQEIVDQCMNRSIALTQARYLEKEEKCLPPPSIRVVVTVEQTEEELERAASTIKEVAQAVLL
chain 2: MRPEPGGCCCRRTVRANGCVANGEVRNGYVRSSAAAAAAAAAGQIHHVTQNGGLYKRPFNEAFEETPMLVAVLTYVGYGVLTLFGYLRDFLRYWRIEKCHHATEREEQKDFVSLYQDFENFYTRNLYMRIRDNWNRPICSVPGARVDIMERQSHDYNWSFKYTGNIIKGVINMGSYNYLGFARNTGSCQEAAAKVLEEYGAGVCSTRQEIGNLDKHEELEELVARFLGVEAAMAYGMGFATNSMNIPALVGKGCLILSDELNHASLVLGARLSGATIRIFKHNNMQSLEKLLKDAIVYGQPRTRRPWKKILILVEGIYSMEGSIVRLPEVIALKKKYKAYLYLDEAHSIGALGPTGRGVVEYFGLDPEDVDVMMGTFTKSFGASGGYIGGKKELIDYLRTHSHSAVYATSLSPPVVEQIITSMKCIMGQDGTSLGKECVQQLAENTRYFRRRLKEMGFIIYGNEDSPVVPLMLYMPAKIGAFGREMLKRNIGVVVVGFPATPIIESRARFCLSAAHTKEILDTALKEIDEVGDLLQLKYSRHRLVPLLDRPFDETTYEETED
notes: core enzyme without ORMDL; full-length subunits co-expressed in HEK293F; N-terminal Flag tag on a subunit; purified in GDN; with Serine palmitoyltransferase small subunit A
Question: How did the K0.5 [5] turn out when B4 was run?
Answer: Its K0.5 is 4.47 ± 0.31 µM.

Question: What about the Km [1] of the same protein?
Answer: Its Km is 1580 ± 130 µM.
